Marks after values point to notes of the source that are not given here.
Assays:
Y^246W EGFR = target: T1, Y^246W EGFR (Homo sapiens, UniProt P00533, Y270W); assay: Scatchard analysis of 125I-EGF binding, BaF/3 Y246W; details: BaF/3 Y^246W
T1 construct: expressed in transfected cells
Method: (§1) Single point mutations of the wild-type EGFR were generated using a site-directed mutagenesis kit (Stratagene, La Jolla, Calif.). The template for each mutagenesis was the human EGFR cDNA; (24)) containing the leader sequence followed by a FLAG tag coding sequence, in the mammalian expression vector pcDNA3 (Invitrogen, Carlsbad, Calif.) as described in (4). The automated nucleotide sequencing of each construct was performed to confirm the integrity of each EGF receptor mutation. EGFR expression constructs were transiently expressed in 293 cells (American Type Culture Collection, Manassas, Va.) and the presence of receptor protein determined by staining with 528 and M2 antibodies to confirm expression at the cell surface and to ensure protein folding occurred appropriately (data not shown).
(§2) Wild-type and mutant EGFRs constructs were transfected into the IL-3-dependent murine hemopoietic cell line BaF/3 as described previously (25). Transfected cells were selected in G418 for 10 days. Viable cells were screened for EGFR expression by FACS analysis on a FACStar (Beckton and Dickinson, Franklin Lakes, N.J.) using antibodies to the flag tag (M2: 10 μg/ml in PBS/5% FCS/5 mMEDTA) and/or to the EGFR extracellular domain (mAb528: 10 μg/ml in PBS/5% FCS/5 mMEDTA) followed by Alexa 488-labelled anti-mouse Ig (1:400 final dilution). Background fluorescence was determined by incubating the cells with an irrelevant, class matched primary antibody. Positive pools were sorted for the appropriate level of EGFR expression on a FACS-DIVA (Becton and Dickinson). After final selection, mRNA was isolated from each cell line and all mutations in the EGFR were confirmed by PCR annalysis. […]
(§3) Murine EGF, purified from mouse submaxillary glands (27), was iodinated using Iodogen (28) to a specific activity of 5-8×10^5 cpm/pmol. Ligand binding to cells expressing the wt or mutant EGFR was determined at room temperature in the presence of the […] […] Non-specific binding was determined using a 500-fold excess of unlabelled EGF over ^125I-EGF. […]

E^578C EGFR = target: T2, E^578C EGFR (Homo sapiens, UniProt P00533, E602C); assay: Scatchard analysis of 125I-EGF binding, BaF/3 E578C; details: BaF/3 E^578C
T2 construct: expressed in transfected cells
Method: as §1
(§4) Wild-type and mutant EGFRs constructs were transfected into the IL-3-dependent murine hemopoietic cell line BaF/3 as described previously (25). […] Background fluorescence was determined by incubating the cells with an irrelevant, class matched primary antibody. […]
as §3

L^245C/E^578C EGFR = target: T3, L^245C/E^578C EGFR (Homo sapiens, UniProt P00533, E602C/L269C); assay: Scatchard analysis of 125I-EGF binding, BaF/3 L245C/E578C; details: BaF/3 L^245C/E^578C; less than 10% of number by FACS or immunoblotting
T3 construct: expressed in transfected cells
Method: as §1, §4, §3

wt-EGFR = target: T4, wt-EGFR (Homo sapiens, UniProt P00533); assay: Scatchard analysis of 125I-EGF binding, BaF/3 wt-EGFR
T4 construct: […]; expressed in transfected cells
Method: as §1
(§5) Wild-type and mutant EGFRs constructs were transfected into the IL-3-dependent murine hemopoietic cell line BaF/3 as described previously (25). Transfected cells were selected in G418 for 10 days. Viable cells were screened for EGFR expression by FACS analysis on a FACStar (Beckton and Dickinson, Franklin Lakes, N.J.) using antibodies to the flag tag (M2: 10 μg/ml in PBS/5% FCS/5 mMEDTA) and/or to the EGFR extracellular domain (mAb528: 10 μg/ml in PBS/5% FCS/5 mMEDTA) followed by Alexa 488-labelled anti-mouse Ig (1:400 final dilution). Background fluorescence was determined by incubating the cells with an irrelevant, class matched primary antibody. Positive pools were sorted for the appropriate level of EGFR expression on a FACS-DIVA (Becton and Dickinson). After final selection, mRNA was isolated from each cell line and all mutations in the EGFR were confirmed by PCR annalysis. All cells were routinely passaged in RPMI/10% FCS/10% WEHI3B conditioned medium (26) and 1.5 mg/ml G418.
(§6) Murine EGF, purified from mouse submaxillary glands (27), was iodinated using Iodogen (28) to a specific activity of 5-8×10^5 cpm/pmol. Ligand binding to cells expressing the wt or mutant EGFR was determined at room temperature in the presence of the […] (PAO) (29) by cold saturation experiments. Briefly, cells were incubated in PBS/1% BSA/30 μM PAO with or without increasing amounts of unlabelled EGF (20 pM-5.12 nM) and with a constant amount (300 pM) of ^125I EGF. Non-specific binding was determined using a 500-fold excess of unlabelled EGF over ^125I-EGF. All experimental points were prepared in triplicate. At the end of the incubation, the cells were pelleted and washed twice in ice-cold PBS before transferring to fresh tubes for counting in a Wallac WIZARD γ-counter (PerkinElmer, Boston, Mass.). Scatchard plots and estimates of ligand binding affinities and receptor numbers were obtained using the Radlig program (BioSoft, Cambridge, UK).

Y^246F EGFR = target: T5, Y^246F EGFR (Homo sapiens, UniProt P00533, Y270F); assay: Scatchard analysis of 125I-EGF binding, BaF/3 Y246F; details: BaF/3 Y^246F
T5 construct: expressed in transfected cells
Method: as §1, §2, §3

D^563H EGFR = target: T6, D^563H EGFR (Homo sapiens, UniProt P00533, D587H); assay: Scatchard analysis of 125I-EGF binding, BaF/3 D563H; details: BaF/3 D^563H
T6 construct: expressed in transfected cells
Method: as §1, §5, §6

Y^246D EGFR = target: T7, Y^246D EGFR (Homo sapiens, UniProt P00533, Y270D); assay: Scatchard analysis of 125I-EGF binding, BaF/3 Y246D; details: BaF/3 Y^246D
T7 construct: expressed in transfected cells
Method: as §1, §2, §3

V^583D EGFR = target: T8, V^583D EGFR (Homo sapiens, UniProt P00533, V607D); assay: Scatchard analysis of 125I-EGF binding, BaF/3 V583D; details: BaF/3 V^583D
T8 construct: expressed in transfected cells
Method: as §1, §5, §6

[1] = high affinity sites, listed as 125I-EGF

% of sites (Kd2) (Y^246W EGFR): (100) % | R/cell (from Bmax) (Y^246W EGFR): 2.9 +/− 0.2 R/cell × 10^−4 | [EGF] at which 500R/cell are occupied (Y^246W EGFR; calculated from Kd and Bmax): ~60 pM | R/cell (from Bmax) (E^578C EGFR): 3.45 +/− 0.12 R/cell × 10^−4 | [EGF] at which 500R/cell are occupied (E^578C EGFR; calculated from Kd and Bmax): ~80 pM | R/cell (from Bmax) (L^245C/E^578C EGFR): 0.37 +/− 0.002^b R/cell × 10^−4 | R/cell (from Bmax) (wt-EGFR): 3.4 +/− 0.7 R/cell × 10^−4 | [EGF] at which 500R/cell are occupied (wt-EGFR; calculated from Kd and Bmax): ~15 pM | % of sites (Kd1) (wt-EGFR; [1]): 2.6 +/− 0.4% | % of sites (Kd2) (wt-EGFR; low affinity sites): 97.5 +/− 0.49% | % of sites (Kd2) (Y^246F EGFR): (100) % | R/cell (from Bmax) (Y^246F EGFR): 3.0 +/− 0.2 R/cell × 10^−4 | [EGF] at which 500R/cell are occupied (Y^246F EGFR; calculated from Kd and Bmax): 30 pM | R/cell (from Bmax) (D^563H EGFR): 2.3 +/− 0.8 R/cell × 10^−4 | [EGF] at which 500R/cell are occupied (D^563H EGFR; calculated from Kd and Bmax): 8 pM | % of sites (Kd1) (D^563H EGFR; high affinity sites): 4.4 +/− 0.7) % | % of sites (Kd2) (D^563H EGFR; low affinity sites): 96.4 +/− 0.7% | % of sites (Kd2) (Y^246D EGFR): (100) % | R/cell (from Bmax) (Y^246D EGFR): 1.2 +/− 0.1 R/cell × 10^−4 | [EGF] at which 500R/cell are occupied (Y^246D EGFR; calculated from Kd and Bmax): 400 pM | R/cell (from Bmax) (V^583D EGFR): 3.8 +/− 0.71 R/cell × 10^−4 | [EGF] at which 500R/cell are occupied (V^583D EGFR; calculated from Kd and Bmax): <1 pM | % of sites (Kd1) (V^583D EGFR; [1]): 12.6 +/− 4% | % of sites (Kd2) (V^583D EGFR; low affinity sites): 90.8 +/− 1.9%
Substance: EGF: Murine EGF purified from mouse submaxillary glands, iodinated for binding; EGFR ligand

Reference: patent US8652473B2, “Antibodies to EGF receptor epitope peptides and uses thereof” (Ludwig Institute for Cancer Research Ltd., priority 2004, dated 2014)
